Literature values in PMC7589189.
Like-named read-outs stand apart in the source and are kept apart here. Each block holds one substance with its values, some of them ahead of it.

What was measured:
[1] = target: ALK1-Fc (Homo sapiens) (UniProt P37023); experiment: SPR
[2] = target: TβRII (Homo sapiens) (UniProt P37173)
[3] = target: TβRII (Homo sapiens) (UniProt P37173); remark: listed apart in the source
[4] = target: TβRII (Homo sapiens) (UniProt P37173); remark: listed apart in the source
[5] = target: ActRIIA (Homo sapiens) (UniProt P27037)
Sequence of ActRIIA (Homo sapiens) (P27037 20-135): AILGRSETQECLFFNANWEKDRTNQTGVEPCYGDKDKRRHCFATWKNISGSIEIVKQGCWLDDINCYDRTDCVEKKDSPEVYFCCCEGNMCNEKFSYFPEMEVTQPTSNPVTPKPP

Sequence of TβRII (Homo sapiens) (P37173 23-166): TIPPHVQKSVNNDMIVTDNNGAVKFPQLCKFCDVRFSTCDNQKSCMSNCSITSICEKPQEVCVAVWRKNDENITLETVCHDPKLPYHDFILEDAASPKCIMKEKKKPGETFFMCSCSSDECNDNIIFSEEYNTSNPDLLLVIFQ
Sequence of ALK1-Fc (Homo sapiens) (P37023 22-118): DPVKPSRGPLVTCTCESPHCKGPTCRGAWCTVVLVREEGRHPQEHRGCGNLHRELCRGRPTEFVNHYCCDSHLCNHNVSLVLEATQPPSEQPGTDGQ
Sequence of BMP-7 (P18075 293-431): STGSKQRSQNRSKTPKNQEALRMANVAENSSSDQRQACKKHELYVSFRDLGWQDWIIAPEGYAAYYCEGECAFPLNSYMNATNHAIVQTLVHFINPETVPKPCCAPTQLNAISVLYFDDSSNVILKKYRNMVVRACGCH
Sequence of TGF-β3 (P10600 301-412): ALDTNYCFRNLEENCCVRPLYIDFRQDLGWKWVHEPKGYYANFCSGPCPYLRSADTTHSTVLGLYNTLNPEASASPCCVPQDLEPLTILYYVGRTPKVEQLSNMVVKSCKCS
Sequence of pro-BMP-9 (Q9UK05 320-429): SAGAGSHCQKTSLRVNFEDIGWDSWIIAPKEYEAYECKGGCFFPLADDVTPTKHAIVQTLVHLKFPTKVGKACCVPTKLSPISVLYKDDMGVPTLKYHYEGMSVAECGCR
Sequence of BMP-9 (Q9UK05 320-429): as above
Sequence of TGF-β1 (P01137 279-390): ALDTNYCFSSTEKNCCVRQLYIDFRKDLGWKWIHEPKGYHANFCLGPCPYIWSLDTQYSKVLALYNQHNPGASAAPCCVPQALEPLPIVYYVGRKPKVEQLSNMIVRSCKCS
Sequence of TGF-β2 (P61812 303-414): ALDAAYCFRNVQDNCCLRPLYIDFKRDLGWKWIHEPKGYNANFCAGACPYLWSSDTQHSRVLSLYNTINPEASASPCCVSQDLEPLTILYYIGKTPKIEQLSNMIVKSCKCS

Substance: TGF-β3 (from UniProt P10600)
Kd [2]: 0.5 nM

Substance: TGF-β2 (from UniProt P61812)
Kd [3]: > 10 nM

Substance: TGF-β1 (from UniProt P01137)
Kd [4]: 0.2 nM

Substance: BMP-7 (from UniProt P18075)
Kd [5]: 8 nM

The next lines start with the values.

Kd [1]: 0.048 nM
Substance: BMP-9 (from UniProt Q9UK05)

Kd [1]: 0.061 nM
Substance: pro-BMP-9 (from UniProt Q9UK05)
